The assay deals with hIK1 intermediate conductance, calcium-activated potassium channel (human) (UniProt O15554). As to the kind of experiment: cell-based or functional assay.

The source of these data is patent US6987169.

Chain of iberiotoxin (P24663 whole entry): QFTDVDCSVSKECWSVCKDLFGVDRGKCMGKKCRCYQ
Chain of hIK1 intermediate conductance, calcium-activated potassium channel (human) (O15554 other isoform, or with tags, fused parts or gaps): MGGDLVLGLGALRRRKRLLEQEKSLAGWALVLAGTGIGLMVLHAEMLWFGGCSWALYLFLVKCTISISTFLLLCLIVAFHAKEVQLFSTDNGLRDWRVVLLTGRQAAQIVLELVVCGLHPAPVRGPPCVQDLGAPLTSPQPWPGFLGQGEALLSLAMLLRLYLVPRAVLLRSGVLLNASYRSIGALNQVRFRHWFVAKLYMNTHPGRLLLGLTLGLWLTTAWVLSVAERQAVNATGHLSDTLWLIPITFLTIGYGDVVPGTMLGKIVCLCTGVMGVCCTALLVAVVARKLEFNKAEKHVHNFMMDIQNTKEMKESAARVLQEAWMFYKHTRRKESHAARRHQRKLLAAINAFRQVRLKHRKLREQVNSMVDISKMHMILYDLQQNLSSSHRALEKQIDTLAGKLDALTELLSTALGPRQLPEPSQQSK

Consider “iberiotoxin (from UniProt P24663 1-37) (peptide)”, for which the percent block of hIK1 currents at 50 nM amounted to 15%.
